In patent US20260125472A1 (HEFEI TG IMMUNOPHARMA, published 2026):

Legend:
[1] = molecular target: T1, PDL1 on A-375 melanoma cells, HCT-15 colorectal cancer cells and A549 lung cancer cells (UniProt Q9NZQ7 19-290, limits assumed); test: flow cytometry, A549 cells, MFI [panel B]
T1 construct: whole, on cells
Summary of the method: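 Cells were blocked with goat serum at 4° C for 30 min, then incubated with serially diluted bispecific antibodies or hIgG1LALA control at 4° C for 30 min. Bound antibody was detected with Alexa-647 anti-human IgG (4° C, 30 min, dark) and read by flow cytometry.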

[2] = molecular target: T2, PDL1 protein (UniProt Q9NZQ7 19-238); test: ELISA, coated PDL1 protein, OD450 [panel A]
T2 construct: Bought recombinant protein
Summary of the method: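 PDL1 protein coated at 2 μg/ml overnight at 4 °C, blocked with PBS/10% BSA; serially diluted bispecific antibodies or control IgG1LALA bound 1 h at 37 °C. Detection with HRP anti-human Fab secondary antibody and TMB for 3 min, stopped with sulfuric acid, absorbance at 450 nm.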

[3] = molecular target: T1, PDL1 on A-375 melanoma cells, HCT-15 …; test: flow cytometry, A-375 cells, binding ratio % [panel A]
Procedure: (2) The tumor cells were diluted to 2×10⁶/ml with PBS and added to a 1.5 ml EP tube at a volume of 100 μl/tube, and goat serum was added thereto at 10 μl/tube. The cells were blocked at 4° C. for 30 min. The serially diluted bispecific antibodies, Cross3×Trop2, Cross303×Trop2, Cross307×Trop2, Cross308×Trop2, Cross309×Trop2, Cross310×Trop2, Cross311×Trop2, Cross312×Trop2, Cross313×Trop2, Cross314×Trop2, Cross316×Trop2, Cross317×Trop2, Cross318×Trop2, Cross323×Trop2, Cross325×Trop2, Cross326×Trop2, and Cross3×PDL1, Cross303×PDL1, Cross307×PDL1, Cross308×PDL1, Cross309×PDL1, Cross310×PDL1, Cross311×PDL1, Cross312×PDL1, Cross313×PDL1, Cross314×PDL1, Cross316×PDL1, Cross317×PDL1, Cross318×PDL1, Cross323×PDL1, Cross325×PDL1, Cross326×PDL1, and control hIgG1LALA (purchased from Bio-Tech) were added and incubated at 4° C. for 30 min. 1 ml of PBS was added to the EP tube, followed by centrifugation at 3500 rpm for 5 min at 4° C. The supernatant was discarded, and the cells were washed again with PBS. After centrifugation, the supernatant was completely discarded, and the cells were resuspended with PBS at 100 μl/tube. Alexa-647-labeled goat anti-human IgG secondary antibody (purchased from Jackson lab) was added at 1 μl/tube and incubated at 4° C. in the dark for 30 min. The cells were washed twice with PBS, and the supernatant was completely discarded after centrifugation. The cells were resuspended with PBS at 200 μl/tube and assay was performed using the flow cytometry.

[4] = molecular target: T2, PDL1 protein; test: ELISA, coated PDL1 protein, OD450 [panel B]
Procedure: (3) PDL1 protein (purchased from Acro) was diluted to 2 μg/ml with PBS buffer, added to a 96-well plate at a volume of 100 μL/well, and placed at 4° C. overnight. The PBS buffer in the 96-well plate was aspirated, and the plate was washed 6 times with PBST (pH 7.2 PBS containing 0.10% Tween 20) buffer. Then, PBS/10% BSA was added at 200 μL/well and incubated at 37° C. for 2 h for blocking. The blocking solution was removed, and the plate was washed six times with PBST. Then, the to-be-tested bispecific antibodies serially diluted with PBST/0.05% BSA, Cross3×PDL1, Cross303×PDL1, Cross307×PDL1, Cross308×PDL1, Cross309×PDL1, Cross310×PDL1, Cross311×PDL1, Cross312×PDL1, Cross313×PDL1, Cross314×PDL1, Cross316×PDL1, Cross317×PDL1, Cross318×PDL1, Cross323×PDL1, Cross325×PDL1, Cross326×PDL1, and control IgG1LALA (purchased from Bio-Tech) were added at 100 μL/well, and incubated at 37° C. for 1 h. The reaction system was removed, and the plate was washed 6 times with PBST. Then, the cells were incubated at 37° C. for 1 h with HRP (horseradish peroxidase)-labeled anti-human secondary antibody (Fab specific) (purchased from Sigma) serially diluted with PBST/0.05% BSA at 100 μL/well. After the plate was washed six times with PBST, TMB (tetramethylbenzidine) was added at 80 μL/well and incubated at room temperature for 3 min. 4 M sulfuric acid was added at 80 μL/well to terminate the reaction. The absorbance was read at 450 nm using a microplate reader.

[5] = molecular target: T3, CD3E&D protein (UniProt P04234 22-105); test: ELISA, coated CD3E&D protein, OD450 [panel B]
T3 construct: Purchased from Acro; also called CD3 E&D antigens; CD3E&D antigen protein
Source text: In this example, the binding properties of the CD3×Trop2 and CD3×PDL1 bispecific antibody (the production method and the amino acid sequences of the heavy and light chains were shown in Example 1) were detected by using ELISA. The CD3E&D, Trop2, or PDL1 protein was coated onto 96-well plates by inventors, and the strength of the signal after the addition of the antibody was used to determine the binding properties of the antibody and the corresponding protein.
(1) CD3E&D protein (purchased from Acro) was diluted to 2 μg/ml with PBS buffer, added to a 96-well plate at a volume of 100 μL/well, and placed at 4° C. overnight. The PBS buffer in the 96-well plate was aspirated, and the plate was washed 6 times with PBST (pH 7.2 PBS containing 0.1% Tween 20) buffer. Then, 200 μL/well PBS/10% BSA was added and incubated at 37° C. for 2 h for blocking. The blocking solution was removed, and the plate was washed 6 times with PBST. Then, the to-be-tested bispecific antibodies serially diluted with PBST/0.05% BSA, Cross3×Trop2, Cross303×Trop2, Cross307×Trop2, Cross308×Trop2, Cross309×Trop2, Cross310×Trop2, Cross311×Trop2, Cross312×Trop2, Cross313×Trop2, Cross314×Trop2, Cross316×Trop2, Cross317×Trop2, Cross318×Trop2, Cross323×Trop2, Cross325×Trop2, Cross326×Trop2, Cross3×PDL1, Cross303×PDL1, Cross307×PDL1, Cross308×PDL1, Cross309×PDL1, Cross310×PDL1, Cross311×PDL1, Cross312×PDL1, Cross313×PDL1, Cross314×PDL1, Cross316×PDL1, Cross317×PDL1, Cross318×PDL1, Cross323×PDL1, Cross325×PDL1, Cross326×PDL1, and control IgG1LALA (purchased from Bio-Tech) were added at 100 μL/well, and incubated at 37° C. for 1 h. The reaction system was removed, and the plate was washed 6 times with PBST. Then, the cells were incubated at 37° C. for 1 h with HRP (horseradish peroxidase)-labeled anti-human secondary antibody (Fab specific) (purchased from Sigma) diluted with PBST/0.05% BSA at 100 μL/well. After the plate was washed six times with PBST, 80 μL/well TMB (tetramethylbenzidine) was added and incubated at room temperature for 3 min. […] The absorbance was read at 450 nm using a microplate reader.

[6] = molecular target: T4, CD3 on CD8 T cells (Homo sapiens (Human), UniProt P07766 23-207); test: flow cytometry, CD8 T cells in PBMCs, binding ratio % [panel A]
T4 construct: Native CD3 complex on CD8 T cells among PBMCs; also called T cells (PBMCs gated with anti-human CD8 antibody)
Procedure: (1) PBMCs were diluted to 2×10⁶/ml with PBS and added to a 1.5 ml EP tube at 100 μl/tube, goat serum was added thereto at 10 μl/tube. The cells were blocked at 4° C. for 30 min. The serially diluted bispecific antibodies, Cross3×Trop2, Cross303×Trop2, Cross307×Trop2, Cross308×Trop2, Cross309×Trop2, Cross310×Trop2, Cross311×Trop2, Cross312×Trop2, Cross313×Trop2, Cross314×Trop2, Cross316×Trop2, Cross317×Trop2, Cross318×Trop2, Cross323×Trop2, Cross325×Trop2, Cross326×Trop2, Cross3×PDL1, Cross313×PDL1, Cross316×PDL1, Cross325×PDL1, and control hIgG1LALA (purchased from Bio-Tech) were added and incubated at 4° C. for 30 min. 1 ml of PBS was added to the EP tube, followed by centrifugation at 3500 rpm for 5 min at 4° C. The supernatant was discarded, and the system was washed again with PBS. After centrifugation, the supernatant was discarded, and the cells were resuspended with PBS at 100 μl/tube. 1 μl/tube Alexa-647-labeled goat anti-human IgG secondary antibody (purchased from Jackson lab) and 0.5 μl/tube PerCP-Cy5.5-labeled anti-human CD8 antibody were added and incubated at 4° C. in the dark for 30 min. The cells were washed twice with PBS. After centrifugation, the supernatant was discarded. The cells were resuspended with 200 μl/tube of PBS and assay is performed by flow cytometry.

T1 sequence (Q9NZQ7 19-290 limits assumed): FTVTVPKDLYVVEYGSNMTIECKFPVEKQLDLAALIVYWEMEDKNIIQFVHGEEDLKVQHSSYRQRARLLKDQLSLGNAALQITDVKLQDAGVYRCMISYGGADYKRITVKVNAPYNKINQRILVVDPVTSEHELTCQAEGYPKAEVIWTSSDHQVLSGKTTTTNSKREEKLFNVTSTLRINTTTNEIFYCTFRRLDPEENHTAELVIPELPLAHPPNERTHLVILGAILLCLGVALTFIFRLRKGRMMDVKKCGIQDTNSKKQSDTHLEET
T2 sequence (Q9NZQ7 19-238 limits assumed): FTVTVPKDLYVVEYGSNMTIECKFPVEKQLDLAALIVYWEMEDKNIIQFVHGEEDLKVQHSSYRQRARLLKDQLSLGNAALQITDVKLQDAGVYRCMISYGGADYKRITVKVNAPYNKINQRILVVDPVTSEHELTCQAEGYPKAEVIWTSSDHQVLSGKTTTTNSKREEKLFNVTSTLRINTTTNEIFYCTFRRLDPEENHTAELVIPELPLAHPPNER
T3 sequence (chain, as listed by the source limits assumed, chain 1 of 2): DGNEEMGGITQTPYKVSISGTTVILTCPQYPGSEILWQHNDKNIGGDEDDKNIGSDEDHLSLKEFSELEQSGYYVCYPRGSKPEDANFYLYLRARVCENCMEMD
T3 sequence (P04234 22-105 limits assumed, chain 2 of 2): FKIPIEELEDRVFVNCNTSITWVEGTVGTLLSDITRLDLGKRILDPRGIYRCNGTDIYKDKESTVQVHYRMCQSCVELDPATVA
T4 sequence (P07766 23-207 limits assumed): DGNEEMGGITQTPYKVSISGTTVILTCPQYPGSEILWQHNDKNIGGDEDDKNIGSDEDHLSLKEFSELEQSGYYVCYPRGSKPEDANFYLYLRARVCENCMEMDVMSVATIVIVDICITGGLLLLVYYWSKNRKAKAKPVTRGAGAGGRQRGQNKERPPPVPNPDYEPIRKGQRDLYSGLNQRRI

Binder | EC50 (read off the curve) [1] [µg/mL] | EC50 (read off the curve) [2] [µg/mL] | EC50 (read off the curve) [3] [µg/mL] | EC50 (read off the curve) [4] [µg/mL] | EC50 (read off the curve) [5] [µg/mL] | EC50 (read off the curve) [6] [µg/mL]
Cross309×PDL1 (bispecific antibody, human IgG1, kappa, L234A L235A) scFv: not shown heavy: QVQLVQSGAEVKKPGASVKVSCKASGYSFTGYYMHWVRQAPGQGLEWIGRINPYNGATTYSQNFKDRATMTVDTSISTAYMELSRLRSDDTAVYYCVPTGMGYFLMDYWGQGTLVTVSSASTKGPSVFPLAPSSKSTSGGTAALGCLVKDYFPEPVTVSWNSGALTSGVHTFPAVLQSSGLYSLSSVVTVPSSSLGTQTYICNVNHKPSNTKVDKKVEPKSCDKTHTCPPCPAPEAAGGPSVFLFPPKPKDTLMISRTPEVTCVVVDVSHEDPEVKFNWYVDGVEVHNAKTKPREEQYNSTYRVVSVLTVLHQDWLNGKEYKCKVSNKALPAPIEKTISKAKGQPREPQVCTLPPSREEMTKNQVSLSCAVKGFYPSDIAVEWESNGQPENNYKTTPPVLDSDGSFFLVSKLTVDKSRWQQGNVFSCSVMHEALHNHYTQKSLSLSPGK light: DIQLTQSPSFLSASVGDRVTITCKASQDVGSAVVWYQQKPGKAPKLLIYWASTRHTGVPSRFSGSGSGTEFTLTISSLQPEDFATYFCQQFTSYPTFGQGTKLEIKRTVAAPSVFIFPPSDEQLKSGTASVVCLLNNFYPREAKVQWKVDNALQSGNSQESVTEQDSKDSTYSLSSTLTLSKADYEKHKVYACEVTHQGLSSPVTKSFNRGEC | ~1 | ~0.2 | ~0.4 | – | – | –
Cross325×PDL1 (bispecific antibody, human IgG1, kappa, L234A L235A) scFv: not shown heavy: QVQLVQSGAEVKKPGASVKVSCKASGYSFTGYYMHWVRQAPGQGLEWIGRINPYNGATTYSQNFKDRATMTVDTSISTAYMELSRLRSDDTAVYYCVPTGMGYFLMDYWGQGTLVTVSSASTKGPSVFPLAPSSKSTSGGTAALGCLVKDYFPEPVTVSWNSGALTSGVHTFPAVLQSSGLYSLSSVVTVPSSSLGTQTYICNVNHKPSNTKVDKKVEPKSCDKTHTCPPCPAPEAAGGPSVFLFPPKPKDTLMISRTPEVTCVVVDVSHEDPEVKFNWYVDGVEVHNAKTKPREEQYNSTYRVVSVLTVLHQDWLNGKEYKCKVSNKALPAPIEKTISKAKGQPREPQVCTLPPSREEMTKNQVSLSCAVKGFYPSDIAVEWESNGQPENNYKTTPPVLDSDGSFFLVSKLTVDKSRWQQGNVFSCSVMHEALHNHYTQKSLSLSPGK light: DIQLTQSPSFLSASVGDRVTITCKASQDVGSAVVWYQQKPGKAPKLLIYWASTRHTGVPSRFSGSGSGTEFTLTISSLQPEDFATYFCQQFTSYPTFGQGTKLEIKRTVAAPSVFIFPPSDEQLKSGTASVVCLLNNFYPREAKVQWKVDNALQSGNSQESVTEQDSKDSTYSLSSTLTLSKADYEKHKVYACEVTHQGLSSPVTKSFNRGEC | ~1 | – | – | ~0.1 | ~0.7 | ~0.4
